Experiment: label from the status in PepcDB records
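Note: failed if final PepcDB status was selected cloned or expressed and not failed if soluble or beyond.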

Sequence	protein production
DASRQAELVREGITSSSDLVEQSLNKIEKGNSQLNAVTYLRADRALEEAKQINDHGQPFFGVPILLKGLGQKLAGEPATASSRLLKKLVADQTDFYVQALQKAGFIVIGQTNAPEFGFKNITDPTLYGPTRNPWNLDYYSGGSSGGAASSMAADFVSIASGSDGGGSIRIPASFSSLIGLKPTRGRIPVGPTDWRTWQGASISFALTRSVRDNARLLDAIQTVQPAAAFTTPLYEAGFFAGIDQLDRNLTIAYTTKSPVGTEVRDEAKTAVENAVDFLRSEGFQVEEQENPLDGKEIMQLYYLMNAGETAAMFADIEEGIGRPTNIQDMELMSWVIYQAGKLVTAGEYSQALSKWDISSYQMNQFHENYDLYLTPTTAYPAPKLTDELISPELLGRMKEVTSLTSSFERQQLIYDAFLPSLALTPFTQQANLTGEPAISLPTHLTAAGLPLGIQFQAAKGREIDLLRIARLFEKHNLFHFLHKTIF	failed
DCLLPIVAAPMAGGPTTVALAQAVSGVGGFPFLAGGYKSVEALATEIAVLRASGGNFGVNLFVPSPDMVDAEAFRIYAAKLQSEALPYGLRLDPLPVMGDDDGWPDKLALLLNDPVPVVSFTFGLPAVRDIAALRCAGSRVLASVTLPAEAQAAMEAGVDGLVVQGPDAGGHSATYDPGRPFTPLKTVSLVRRVCAVSSLPVIAAGGVDGPVMVRALLQAGAAAVAIGTLLLRTKESGATQVHKDALANPAYTETVITHAFTGRPARTLRNGFVNRYHASAPLGYPAIHHLTRPLRQAAASAGDADVLHLWAGTGYRQAMDGSAVDVIQ	failed
DETYYTVDLEQKLEEKFGLEEAIVVATHDMSEEEALNFLAKEAAYTLSKRIAKVNTLGISWGKTIRKFANEFPYIPHKDLTIIPLIGGMGSSDIDLHSNQICYDLKKKMQCHSKYLYAPALVEDTEMKADLSKNKYINEVLEEGKTVDMAIVGVSSPYNQSTMEEIGYITPEDIEELRYKDVVGDINSRFFTANGEEANTQINTHVIGLSLEELKKIPTVVALANGLQKKDALVSALNAGLIDVIVITDRMAEYILQKND	failed
DEWTDEQFKQLISFKTQPGGWGVTDVHVRYANSAKYTYNLPVLVSGSTDNTDDRLVSFSLRDDTLDILNFEKFGNRPELYFRELPQKYYSFPKELTIPAGQSHALLPIEFSLDGLDDSQKWALPLKVCEDANGTYAVNPRKYYRTAVLRPILFNEFSGRFSGSSLLGTMAGESDIKFSSTEIKLNVVTDSIVFFYAGQRTEDYEDRINYKVFLQFTGDKVDSKKDLYKMKIWAENEKLKFNSYSTPTYKVSSEMDATKTYLKHTYIVISDIDFDFVDYTSVPNYEIEYNMKGGLSVSRDLDTRKPDEDQGSDSKWW	not failed
DHHAWHRLLDRALSEQHFQLYFQPVVAARDTHLVLHYKVLSRLLDEQGQTIPAGRFLPWLERFGWTSRLDLLMLEQVLRQMASHEDCLALNLSAATLADPHALNRVFEILRQHSDLGPRLTLEIGEEQLPEQAMLEQLTRRLRELGFSLSLQRFGGRFSMIGNLARLGLAYLKIDGSYIRDIDQESDKRLFIEAIQRAAHSIDLPLIAERVETEGELQVIREMGLYGVQGQLFGEPAPWG	not failed
DHSLAIIEFDLSSRIIEVNQNYLDYFGYQRDEVIGQYHLMFCHPGYANSDEYQKIKTSLLAGQSLEGRFERIHKDGSRVWLAAIYQPVSGPDGSVTRIVKIAKNIT	failed
DIRPSKLLTWCQQQTEGYQHVNVTDLTTSWRSGLALCAIIHRFRPELINFDSLNEDDAVENNQLAFDVAEREFGIPPVTTGKEMASAQEPDKLSMVMYLSKFYELFRGTPLRPV	not failed
DKLDLSPIDYYGSGSYWKTEAQATAYIDGIHKHLRDAAWQHTITFGELRGGRFITGASSDGMGVSNGDIILQNFDETHTGVSKFGDLFGRITNLNLFIARVTDATYLSDEMKNFYLGEVYGLRAFYYFDLYRIYGGVPLRLTADVVEGVIDPNKLYMARSTPKEVMTQIKSDLNKSMEYFGNMNDFDPYKRGKKVYWSKAATECLMGEVYLWTSKVTTGDDVANPADLTIAKTHLESVLNNYNLKMLDDFSQVFNAKNKANDEIIFAIRFLEGEATNSNGTFTYNVGTGSTKNRYQANGEVFGDALDIQNTGNQTYEYNKAVYQNFDDADTRKEATFIASYNKDGKTGELSLYGTHVRKNIGYVNAQGARVYCGDYIFYRLPWVYLTLAEIANMEGDNAAVAKYINLVRKRAYGNAWDETLYAYPETADFTTNELAILHEKDKEFIQEGQRWWDLRRMTLTKGGTPLVFCKEGSLLGDAPILNKSTEAHKLLWPIEKTMLNKDPALEQTPGYK	not failed
DMKQLAEDVKLQLYKLLEIPDPDKNWATLAQKLGLGILNNAFRLSPAPSKTLMDNYEVSGGTVRELVEALRQMGYTEAIEVIQAASS	not failed
DNDAEALLWSELRDRRLNGFKFVRQVAVGPYFADFACRDERLVVEVDGSQHQIGSGDARRDKFMVMNGWSVLRFWNTDIFNDRAAVLETIVAVLEKRLVREVRSAD	failed
DNYRTTGIATIEVFLPPRLKKDRKNLLETRLHITGRELRSKIAETFGLQENYIKIVINKKQLQLGKTLEEQGVAHNVKAMVLELKQS	not failed
DPSVFSLPDSKLPGDKEFVPWQQDLDDSVKPTQQARPTVIRWSEGGKEVFISGSFNNWSTKIPLIKSHNDFVAILDLPEGEHQYKFFVDGQWVHDPSEPVVTSQLGTINNLIHVKKSDFEVFDALKLDSMESSETSCRV	failed
DQEPPLYVNENDIFTSPTRIEATLNGLYAAIKNTGTKSLMGGKSYLVFDNRGDDVINISNNLVTLFNTYNMNVGITDAENADTWTYAYLAINKVNTFLQSLEGAREVAGENYDRYVQEAKFVRALAYYYLNNLYPTPYSVNPDAKSVPLRLTAEAGTENNNMPRSTVKQIYEHILSDLENISALDTEVNTYTGVTHATQAAANMLKMRVYMAMNEWDKAITAGELVTGYSLPEDVTLIYKAPYFSQESIFSLPMADTNIPNTQQSLAEYYYDGKIMLIDTKSGIMSKPDYSLATDKRIIAFKGEKDLLMKFTDAKTKLQWVPIFRYAETLLDLAECYANKAGGEATAKSLLKQVRGRSVDAATDPLNIDNLSGDALKEAIYNEKRLEFIGEGIRGIDIMRRGEHFIKVGENETINVGPSDEKYTWPIPQVELLLNKDINK	not failed
DQKGDKVVIRGNNYVSIATGLNWYLKYYAGIHLSWNGMQAKLPAVLPPVTKKERRETTLPYRYDLNYCTFSYSMAFWDWNRWEKEIDWMALHGINIPLAVTGAEAVWHNVLDKLGYTKTEINEFISGPGFFAWWLMNNLEGWGGPNPDSWYTRQIALQKKILKRMREYGIEPVLPGYCGMVPHNAKEKLGLNVSDPGTWCGYRRPAFLQPSDPRFEEISSLYYKELEKLYGKANFYSMDPFHEGGNTAGVDLDAAGKAVMKAMKKANPKAVWVAQAWQANPRPKMIENLKAGDLLILDLTSECRPQWGDSTSEWYRKNGYGQHDWIYCMLLNYGGNVGLHGKMDNVIDNFYLAKADPHASATLKGVGMTPEGIENNPVMYELVMELPWRPDRFTKEEWLKEYVKARYGVDDPVVQAAWTNLANSIYNSPKNLTQQGTHESVFCARPAEDVYQVSSWSEMKDYYRPQEVIEAARLMVSVADRFKGNNNFEYDLVDIVRQALAEKGRLMQKAVTAAYRAGDKQLFALASGKFLDLILLQDKLLGTRPEFRVGKWIEEARALGDTPEEKELYEWNARVQITTWGNRNAADYGGLRDYAHKEWNGLLKDFYYMRWKLYFDFLSQRIEGKTPAEIDFYAIEEPWTKAANPYSAEAEGDCIEVAKQVMQAVE	failed
DRDQTLALMAQMTIPTLATWCAVYTIADQASEPYLSYVLHEDEDRIDGVKALLSKIPPPEPIPTPGARVWSAPAQAAHEAALRTSMRSLGLGEPATVSSGIGTTLATASAVGGETVVLPLVARNRVIGMLTLGKPSDEHFRQEILELAEDLSRRAALALDNARLYSERTAISQSLQRSLLPPDLPHI	failed
DRIYLVAPEDIYLVSVEERQLSIFVDQQVYKMTGTLNSIEQKLPATLFIKTHRSFILNRTKIQEIQPWFNNTLQVILTNGSKVPVSRSYVKEFKEKLGLS	failed
DRLRAFNHRLQNTPESVKVLRDWNMELDKNVTEVQGRIIGQQNIVFHNGKVPAGENADWQRHFRDQRMLTTPSDGLDRWAVIAPQRNSHELRTLLDSLYR	failed
DRRYKWQTVVSEQLVGAGFNEILNNSLTAGSYYEGLKTHPREMAVELMNPLSQELNCMRQTLLFGGLETLSHNLRRKHLSLYLFEWGKCYRFHAAKRTDETPLSAYAEDDRLGIWICGQRVHNSWAHPEEPTSVFELKAVVEQVLCRVGIETGAYTLETADNDLYASAMEVKTRSGKLLGTFGTVSTEQIKRFDIEQPVYFAELLWDALMSESARYKLEARD	failed

— a protein production outcome set (Wang et al. 2014)
